We go through nine substances from patent US20240132578A1.

Common to all, as to assay: cell-based or functional assay
The target in assay [1] is HIV-1 APV13 envelope glycoprotein (Env), clade B pseudovirus (HIV-1).
Assay [2] deals with HIV-1 MGRM-D-018 envelope glycoprotein (Env), clade D pseudovirus (HIV-1).
In assay [3] the target is HIV-1 JRCSF envelope glycoprotein (Env), clade B pseudovirus (HIV-1).
Assay [4] has as its target HIV-1 92BR020 envelope glycoprotein (Env), clade B pseudovirus (HIV-1).
Assay [5] has as its target HIV-1 94UG103 Env (HIV-1 isolate 94UG103 (clade A)).
The target in assay [6] is HIV-1 Env of pseudovirus THRO.18 (HIV-1).
In assay [7] the target is HIV-1 Env of pseudovirus CAP45 (HIV-1).
In assay [8] the target is HIV-1 Env of pseudovirus ZM249 (HIV-1).
Assay [9] addresses HIV-1 Env of isolate MGRM-F1-014 (subtype F) (HIV-1).
The target in assay [10] is HIV-1 envelope glycoprotein (Env) of isolate MG RM-A-001 (HIV-1).
Assay [11] concerns the target HIV-1 Env of isolate MGRM-Chronic-B-011 (subtype B), on pseudovirus (HIV-1).
For assay [12], the target named is HIV-1 92UG005 envelope glycoprotein (Env) on virus (HIV-1, clade D, isolate 92UG005).
For assay [13], the target named is HIV-1 92BR020 envelope glycoprotein (Env) on virus (HIV-1, clade B, isolate 92BR020).
In assay [14] the target is HIV-1 MGRM-C-027 envelope glycoprotein (Env) on virus (HIV-1, clade C, isolate MGRM-C-027).
Assay [15] addresses aMLV envelope protein on virus (negative control) (aMLV).
The target in assay [16] is HIV-1 NL43 envelope glycoprotein (Env) on virus (HIV-1, clade B, isolate NL43).
The target in assay [17] is HIV-1 MGRM-C-028 envelope glycoprotein (Env) on virus (HIV-1, clade C, isolate MGRM-C-028).
Assay [18] deals with HIV-1 MGRM-D-018 envelope glycoprotein (Env) (HIV-1).
Assay [19] addresses HIV-1 MGRM-AG-005 envelope glycoprotein (Env) (HIV-1).
The target in assay [20] is HIV-1 93IN905 envelope glycoprotein (Env) (HIV-1).
Assay [21] has as its target HIV-1 envelope glycoprotein (Env) of isolate MGRM-A-010 (HIV-1).
Assay [22] addresses HIV-1 envelope glycoprotein (Env) of isolate MGRM-C-027 (HIV-1).
For assay [23], the target named is HIV-1 envelope glycoprotein (Env) of isolate 92UG024 (HIV-1).
Assay [24] deals with HIV-1 envelope glycoprotein (Env) of isolate 92UG005 (HIV-1).
Assay [25] addresses HIV-1 NL43 Env (pseudovirus) (HIV-1).
In assay [26] the target is HIV-1 93UG077 Env (pseudovirus) (HIV-1).
Assay [27] concerns the target HIV-1 MGRM-A-010 Env (pseudovirus) (HIV-1).
Assay [28] concerns the target HIV-1 JR-CSF Env S306A (HIV-1 (isolate JR-CSF, clade B)) (UniProt P20871).
Assay [29] concerns the target HIV-1 MGRM-C-026 Env (pseudovirus) (HIV-1).
Assay [30] deals with HIV-1 Env of isolate APV6 (clade B) (HIV-1).

Sequence of 1443_C16 (PG16) (TCN-116) (antibody) (VH): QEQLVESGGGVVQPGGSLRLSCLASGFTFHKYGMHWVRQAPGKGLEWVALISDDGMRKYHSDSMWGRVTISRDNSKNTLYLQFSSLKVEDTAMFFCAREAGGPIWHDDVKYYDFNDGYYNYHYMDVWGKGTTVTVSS
Sequence of 1443_C16 (PG16) (TCN-116) (antibody) (VL): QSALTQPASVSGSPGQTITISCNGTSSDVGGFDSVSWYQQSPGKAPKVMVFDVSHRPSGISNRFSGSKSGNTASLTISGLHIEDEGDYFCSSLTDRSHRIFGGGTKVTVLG
Sequence of 5329_C19 (PGT-136) (antibody) (VH): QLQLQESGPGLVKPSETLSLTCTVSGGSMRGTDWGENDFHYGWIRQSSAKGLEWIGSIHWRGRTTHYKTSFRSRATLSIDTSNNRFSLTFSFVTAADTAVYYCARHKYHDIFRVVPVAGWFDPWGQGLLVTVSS
Sequence of 5329_C19 (PGT-136) (antibody) (VL): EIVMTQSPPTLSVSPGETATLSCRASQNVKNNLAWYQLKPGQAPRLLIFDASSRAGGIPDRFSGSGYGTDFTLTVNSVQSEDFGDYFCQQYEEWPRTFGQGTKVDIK

In [1], 4858_P08 (PGT-123) (antibody) returned an IC50, pseudovirus neutralization of 0.222 mg/L; an IC80 (pseudovirus neutralization) of 0.879 mg/L; an IC90 (pseudovirus neutralization) of 1.87 mg/L; an IC95 (pseudovirus neutralization) of 3.5 mg/L. In assay [2], this substance displayed an IC50, pseudovirus neutralization of 0.0047 mg/L; an IC80 (pseudovirus neutralization) of 0.0175 mg/L; an IC90 (pseudovirus neutralization) of 0.0381 mg/L; an IC95 (pseudovirus neutralization) of 0.0791 mg/L. In assay [3], this substance registered an IC50, pseudovirus neutralization of 0.0423 mg/L; an IC80 (pseudovirus neutralization) of 0.143 mg/L; an IC90 (pseudovirus neutralization) of 0.289 mg/L; an IC95 (pseudovirus neutralization) of 0.547 mg/L. In assay [4], the IC50, pseudovirus neutralization was 0.013 mg/L; the IC80 (pseudovirus neutralization) was determined as 0.039 mg/L; the IC90 (pseudovirus neutralization) stood at 0.0741 mg/L; the IC95 (pseudovirus neutralization) is 0.134 mg/L.
4838_L06 (PGT-121) (antibody) displayed a Neutralization IC80 in assay [5] of 8.85 mg/L.
Consider 1443_C16 (PG16) (TCN-116) (antibody), for which the IC50, pseudovirus neutralization (TZM-bl assay) was 2.19 mg/L in [6], less than 0.01 mg/L in [7] and less than 0.01 mg/L in assay [8].
The IC50 is the concentration needed to halve the response being measured. A high value points to lower potency. As to PGV04 (antibody), in assay [9], the IC50 (µg/mL), pseudovirus neutralization is 0.02 µg/mL. Also, the half-maximal inhibitory concentration (IC50) in assay [10] stood at 6.78 mg/L. In [11], the IC50, single-round pseudovirus neutralization was determined as 0.497 mg/L.
In the case of 4877_D15 (PGT-122) (antibody), the Neutralization IC80 is more than 10 mg/L in [12]; 0.0929 mg/L in assay [13]; 0.499 mg/L in assay [14]; more than 10 mg/L in assay [15]; more than 10 mg/L in [16]; more than 10 mg/L in [17]. The Neutralization IC90 in assay [12] is more than 10 mg/L; in assay [13] it was 0.168 mg/L; in [14], more than 10 mg/L; in [15], more than 10 mg/L; in [16] it was more than 10 mg/L; in assay [17], more than 10 mg/L. The Neutralization IC95 was more than 10 mg/L in assay [12]; 0.289 mg/L in assay [13]; more than 10 mg/L in assay [14]; more than 10 mg/L in assay [15]; more than 10 mg/L in [16]; more than 10 mg/L in assay [17]. Moreover, the neutralization IC50 was more than 10 mg/L in assay [12]; 0.0337 mg/L in assay [13]; 0.0388 mg/L in [14]; more than 10 mg/L in assay [15]; more than 10 mg/L in assay [16]; 2.06 mg/L in assay [17].
Take 5329_C19 (PGT-136) (antibody): in assay [18], the Neutralization IC80 is more than 10 mg/L, the Neutralization IC90 is more than 10 mg/L, the Neutralization IC95 is more than 10 mg/L and the neutralization IC50 is more than 10 mg/L. Also, in [19], the Neutralization IC80 was more than 10 mg/L, the Neutralization IC90 is more than 10 mg/L, the Neutralization IC95 is more than 10 mg/L and the neutralization IC50 was more than 10 mg/L. In assay [20], this substance gave a Neutralization IC80 of 0.0623 mg/L, a Neutralization IC90 of 0.156 mg/L, a Neutralization IC95 of 0.379 mg/L and a neutralization IC50 of 0.0135 mg/L.
In [21], 5141_B17 (PGT-126) (antibody) registered a Neutralization IC80 of 0.0137 mg/L, a Neutralization IC90 of 0.0316 mg/L, a Neutralization IC95 of 0.0687 mg/L and a neutralization IC50 of 0.0033 mg/L. Further, in [22], the Neutralization IC80 was more than 10 mg/L, the Neutralization IC90 is more than 10 mg/L, the Neutralization IC95 is more than 10 mg/L and the neutralization IC50 came out at 1.14 mg/L. In addition, in assay [23], the Neutralization IC80 was more than 10 mg/L, the Neutralization IC90 was more than 10 mg/L, the Neutralization IC95 was more than 10 mg/L and the neutralization IC50 was more than 10 mg/L. In assay [24], this substance gave a Neutralization IC80 of 0.145 mg/L, a Neutralization IC90 of 0.553 mg/L, a Neutralization IC95 of 2.45 mg/L and a neutralization IC50 of 0.0181 mg/L.
5123_A06 (PGT-125) (antibody): in assay [25], the Neutralization by PGT-125, IC50 was more than 10 mg/L; the Neutralization by PGT-125, IC80 is more than 10 mg/L; the Neutralization by PGT-125, IC90 was more than 10 mg/L; the Neutralization by PGT-125, IC95 is more than 10 mg/L. In assay [26], this substance had a Neutralization by PGT-125, IC50 of 0.0262 mg/L; a Neutralization by PGT-125, IC80 of 0.0926 mg/L; a Neutralization by PGT-125, IC90 of 0.206 mg/L; a Neutralization by PGT-125, IC95 of 0.487 mg/L. Also, in assay [27], the Neutralization by PGT-125, IC50 is 0.0055 mg/L; the Neutralization by PGT-125, IC80 is 0.024 mg/L; the Neutralization by PGT-125, IC90 amounted to 0.0575 mg/L; the Neutralization by PGT-125, IC95 worked out at 0.131 mg/L. The same substance came in with a Fold IC50 increase relative to wild-type in assay [28] of 1.2 fold. In [29], this substance registered a Neutralization by PGT-125, IC50 of 0.0106 mg/L; a Neutralization by PGT-125, IC80 of 0.035 mg/L; a Neutralization by PGT-125, IC90 of 0.0705 mg/L; a Neutralization by PGT-125, IC95 of 0.134 mg/L.
In assay [30], 1496_C09 (PG9) (TCN-109) (antibody) had a Neutralization IC80 of 1.13 mg/L, a Neutralization IC90 of 3.21 mg/L, a Neutralization IC95 of 9.65 mg/L and a neutralization IC50 of 0.214 mg/L.
